Experimental data from paper PMC3601010 (BMC Biochemistry, 2013).
Ends that are not written are not given here.

Columns and labels:
α-thrombin [1] = molecular target: T1, α-thrombin (UniProt P00734 364-622); experiment: cell-based or functional assay
α-thrombin [2] = molecular target: T1, α-thrombin; experiment: SPR; competition: BIAcore X, 25°C; biotinylated HCII 1-75 on streptavidin-coated chip; peptides combined with 250 nM thrombin immediately before flowing over the chip; Ki from IC50 and the KD of 340 nM; conditions: both partners purified
α-thrombin [3] = molecular target: T1, α-thrombin; experiment: ELISA; competition: HCII 1-75 immobilised on microtiter wells; competitor peptides added with 5 nM α-thrombin; ratio of absorbance with and without competitor; IC50 by linear regression of log-transformed plots; conditions: both partners purified

B1: HCII 54-75 (synthetic peptide containing residues 54-75 of human HCII and a nonapeptide N-terminal tag) (peptide)
chain: GEEDDDYLDLEKIFSEDDDYID
modifications: not fully specified (N-terminus); ends and bridges not checked; also: nonapeptide N-terminal tag, unmodified amino terminus
In the case of B1, the “fold reduction of the apparent second-order rate constant of inhibition of 14 nM thrombin by 140 nM plasma-derived HCII with 55 μg/mL standard heparin, 250 μM peptide (Figure 5A)” value (α-thrombin [1]) is reported as 1.6 fold, the “fold reduction of the apparent second-order rate constant of inhibition of thrombin by plasma-derived HCII with 1.4 μM dermatan sulfate, 250 μM peptide (Figure 5B)” value (α-thrombin [1]) is reported as 1.6 fold and the Ki (α-thrombin [2]) is reported as 8.5 µM. The “Ki of equimolar HCII 54-75 and HCII 1-53” value (α-thrombin [2]) was 13 µM and the IC50 (α-thrombin [3]) was 110 µM.
